Laboratory results as given in the RNAGym collection of RNA variant scans (doi:10.1073/pnas.2313332121).

B1: TPR t1 (parent)
chain: GACCAAUCUGCCCUCAGAGCUCGAGAACAUCUUCGGAUGCAGAGGAGGCAGGCUUCGGUGGCGCGAUAGCGCCAACGUCCUCAACCUCCAAUGCAUCCCACCACAUGAUGAUGCCUGAAGAGCCUUGGUUUUUUG

Variants of: B1
Test: polymerase ribozyme fitness, log enrichment relative to wild type (log ratio); higher = more active; in vitro selection for triplet polymerase activity
How it was run: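 The heterodimeric triplet polymerase ribozyme's subunits were each mutagenized into PCR-built libraries and transcribed. Every library was selected once, in triplicate, by annealing with a biotinylated primer, the partner subunit and triplets, incubating frozen at −7 °C, gel-excising extended constructs, capturing on streptavidin beads and running RT-PCR. Input and output libraries were Illumina-sequenced, with genotypes kept only at ≥10 input reads and ≥1 read per output. Fitness, from inverse-variance-weighted replicate averages, is the base-2 logarithm of genotype enrichment over wild-type enrichment.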

Variant | polymerase ribozyme fitness (log ratio)
G60A G71A A90U C94A G110C | -6.47
G58A G69A C88G A121U | -2.86
G57U U96C G110U | -2.25
U59C C80A U81A | -2.03
G58U G69A A111C | -5.38
G58A C70U C79G A100C | -6.76
G60A C72G U131A | -1.09
U59A U92C | -1.76
U59G C85U U87A U106A | -0.914
U59C U81C U106A | -0.294
G58C G61U C94A U116A | -3.54
U59C A91U | -2.41
U59C U109G | -5.76
U59G C72U C82A G110A | -1.21
G57U G117U | -2.86
U59C A105U | -2.63
G58C C62U | -1.01
G60A C79U C98G C99A C123G | -2.67
G58A G61A C73A U92A | -5.1
G58A A84U | -0.731
U59A A83U G93A | -0.452
G60A C86A C98G U109A G117U | -6.71
G58C U109A C114U | -5.23
G60A G63U U87A U92A C102A C115G G128U | -5.66

Variant | polymerase ribozyme fitness (log ratio)
G60A C82A G113A | -0.999
G57C C82U | 0.151
U59G C82A G110A | -0.532
G60A C89A C115U | -2.92
U59A C89U | -0.0389
G57C C104U | 0.227
G60A C72G | -1.01
U59A C62G U87A U129C U130G | -4.15
U59C G110U | -1.54
U59C G93U | -1.12
U59C C72U | -0.715
G58U A111C | -0.00673
G57C C94A C97U A121U G122U | -1.21
U59C A111C G128C | -3.24
U59G C72U C86A | -2.04
G60A C114G U132G | -4.75
G60A C98A C123U | -5.08
U59C C79A G122A C123A U132A | -2.39
U59A C89U U106A | -0.429
G58C C123G | 1.75
U59C C72G A118C | -3.55
G57U G117A G135U | -2.73
G58A C82U G93U C94U U96C C123U | -3.17
G58C C97U U116G G135C | -3.26

Variant | polymerase ribozyme fitness (log ratio)
U59G G113A A121U C123A | -1.97
G58U | -0.329
G58A | 0.0445
G58C | 0.031
U59C C97U C114G | -4.47
U59C U87A | -0.642
G57C U112G | 0.543
G58A C62U C88U | -0.946
G60A C79A G110A | -3.84
G57U C72U U109A C114G | -5.21
G60A A121G | 1.66
G57C C89U G120C | -1.28
G60A C97U G120C | 0.712
G57U G61C G135A | -2.69
G57U G110A | -1.16
G60A C86A | -0.942
G58A U96A | -0.747
G60A C82G C101U G120A G128U | -2.12
G60A C94A G110U | -3.31
U59G G113U U126A | -3.87
U59A C62U C82U G120A | 0.193
G57C C89G A90G | -1.31
U59A A95G U125G | -0.633
G60A G120U A121C | 0.445

Variant | polymerase ribozyme fitness (log ratio)
G60A C89U A95U | -1.24
G58C C101U | -0.386
G57U C123A | 0.124
G57U G60C G61C G113A | -4.44
G57C G60A G117U | -2.47
G58U C115A | -0.324
G58A C73U | -0.192
U59A U96A | -1.66
G57C G58A A83U C86A G117U C123U | -6.95
U59A C70A C102A | -5.39
G58U C94U C101G | -1.75
U59G A111G | 0.731
U59A G60A C80U A95C G120U | -2.35
G57U A74U C79U | -0.181
G58A C99U G122A | -5.04
G60A | -0.00692
U59A A74U | -0.959
G58U C64U U78C U96C C124U U126C U133G | -0.65
U59C C86U G127C | -2.09
U59G C114A | -1.42
U59C U112A | -0.182
U59C A66U C102U C124U | -4.09
G57U A68G | -3.27
G57U G60U C123U | 0.317

Variant | polymerase ribozyme fitness (log ratio)
G57C U78G U112A A118U | 1.26
U59G G117U U131G | -4.31
G60A C82A U129G | -1.13
G57U G113U | -1.79
G58A C64U A66U U130A | -2.13
U59C G61C | -3.23
G60A C101A | -1.57
G60A G93A U131A | -0.952
U59A G113U | -2.9
U59G C72U U106G U112A G128C | -4.15
U59A U125A | -0.568
U59A U125G | -0.415
U59A G77A C79U U87C C114U | -3.41
U59C G117U | -2.88
U59C G117C | -3.91
G57U G60C A84U C99A C101U G117U | -6.95
G57U A66C | -1.65
G57U C72G C94U G122A | -3
G60A C114G | -2.53
G60A C124A | 1.81
G60A C124U | 1.27
G60A G93A G120A | -0.129
G60A C86A U131C | -1.16
G60A C115A G120U | -0.811

Variant | polymerase ribozyme fitness (log ratio)
G58C A95G U109A | -5.73
G58A A91C C101A | -1.1
G57U G60C U96G | -2.78
G60A A66U A111C | -2.41
G60A A111C C123A | -1.91
G58C G71U C101G U112C U129G | -0.74
G60A A83C C101G G128C | -4.75
G60A A105G G120U U133G G135U | -3.99
U59G C86U | 0.709
U59C C88U | -0.959
G60A C82G C86A U87G | -1.52
G58C C62U C114A G127A U130G | -5.36
U59A A111C G120A | -0.645
G60A C123U | 1.14
U59C | -0.0998
U59G | -0.0797
U59A | 0.0811
G57U U92A G120A A121C | -2.28
U59G U96A G128A | -2.77
G57U G69A | -2.73
G57U G69C | -0.847
U59A C76U | -0.808
G60A A105C C115U | -5.65
U59A C104A G110U C115A | -4.57

Variant | polymerase ribozyme fitness (log ratio)
U59G U112G G113A G120U | -4.31
U59G C86U U112C | 1.02
U59G A66C C101G A121C U132C | -2.35
G58C A68G C86A C115U | -6.11
G57C U78C U87C C102A C124A | -0.477
G58C C70A G77C G117A | -7.23
U59G G71U G120C U130A | -4.75
G57U C88A A95U A121U C124U | -1.04
G60A C70U | -1.22
G60A C70A | -3.02
G58A A91C C101A C123G | -1.04
G58C C98A | -5.61
U59C G69U U81A | -1.48
U59C U130G | -0.745
G58C C97A A103U G120C | -6.84
G58U C99U G117C U131C | -5.92
G57C G107C | -6.59
G60A C97G G120C | -4.18
G60A C72G U92C G93A | -4.92
U59A C89A C101U G113U | -3.68
G57U G107U | -5.11
U59C C94A | -1.01
G60A C76U | -1
